Measured values reported in patent US20220380407A1 (WASHINGTON UNIVERSITY, published 2022).
Read-outs that look alike come from different tables or passages of the source. Positions of bridges follow the written chain, without caps; N, C: chain ends. *: point of attachment. X2 = 1‑(ethylsulfonyl)piperidin‑4‑yl carbamate, CCS(=O)(=O)N1CCC(OC(=O)*)CC1; kbt = C-terminal Arg ketobenzothiazole

Assays:
Test in all cases: cell-based or functional assay
[1] = molecular target: T1, recombinant N-terminal His-tag HGFA serine protease domain (UniProt Q04756 373-655)
T1 sequence (looked up): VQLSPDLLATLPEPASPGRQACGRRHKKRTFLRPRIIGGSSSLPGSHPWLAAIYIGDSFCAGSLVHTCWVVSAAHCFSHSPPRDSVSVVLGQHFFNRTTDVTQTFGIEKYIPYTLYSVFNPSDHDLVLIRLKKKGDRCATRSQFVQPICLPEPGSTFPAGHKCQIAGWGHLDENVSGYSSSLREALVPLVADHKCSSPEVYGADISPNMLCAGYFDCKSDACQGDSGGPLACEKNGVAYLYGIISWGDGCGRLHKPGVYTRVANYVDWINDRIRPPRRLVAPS

[2] = molecular target: T2, matriptase (#3946-SE-010, R&D Systems) (UniProt Q9Y5Y6 615-855)
T2 sequence (looked up): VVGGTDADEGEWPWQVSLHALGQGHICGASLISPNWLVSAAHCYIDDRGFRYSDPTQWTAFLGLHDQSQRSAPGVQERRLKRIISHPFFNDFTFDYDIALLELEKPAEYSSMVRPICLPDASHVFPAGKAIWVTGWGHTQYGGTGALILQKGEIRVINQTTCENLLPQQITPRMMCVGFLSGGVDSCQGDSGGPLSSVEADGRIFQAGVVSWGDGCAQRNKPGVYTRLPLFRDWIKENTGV

[3] = molecular target: T3, recombinant thrombin (#1473-SE-010, R&D Systems) (UniProt P00734 44-622)
[4] = molecular target: T4, Factor Xa (#1063-SE-010, R&D Systems) (UniProt P00742 41-488, limits assumed)
[5] = molecular target: T5, activated hepsin (#4776-SE-010, R&D Systems) (UniProt P05981 45-417, limits assumed)
[6] = molecular target: T1, recombinant N-terminal His-tag HGFA …; remark: listed apart in the source
human TMPRSS2 [7] = molecular target: T6, human TMPRSS2 (human, UniProt O15393 1-492)
[8] = molecular target: T2, matriptase (#3946-SE-010, R&D Systems); remark: listed apart in the source
[9] = molecular target: T5, activated hepsin (#4776-SE-010, R&D …); remark: listed apart in the source
human TMPRSS2 [10] = molecular target: T6, human TMPRSS2; remark: listed apart in the source
[11] = molecular target: T7, KLK5 (#1108-SE-010, R&D Systems) (UniProt Q9Y337 23-293, limits assumed)
T7 sequence (looked up): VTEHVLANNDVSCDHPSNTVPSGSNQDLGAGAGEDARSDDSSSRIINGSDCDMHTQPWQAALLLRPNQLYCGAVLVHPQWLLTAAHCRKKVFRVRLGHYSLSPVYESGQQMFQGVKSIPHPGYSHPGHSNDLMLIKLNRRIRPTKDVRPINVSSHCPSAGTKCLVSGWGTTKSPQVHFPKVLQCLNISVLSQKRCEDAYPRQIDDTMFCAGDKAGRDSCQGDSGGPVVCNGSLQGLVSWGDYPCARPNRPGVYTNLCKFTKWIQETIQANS

[12] = molecular target: T1, recombinant N-terminal His-tag HGFA …; remark: listed apart in the source
[13] = molecular target: T2, matriptase (#3946-SE-010, R&D Systems); remark: listed apart in the source
[14] = molecular target: T3, recombinant thrombin (#1473-SE-010, R&D …); remark: listed apart in the source
[15] = molecular target: T4, Factor Xa (#1063-SE-010, R&D Systems); remark: listed apart in the source
[16] = molecular target: T5, activated hepsin (#4776-SE-010, R&D …); remark: listed apart in the source

T4 sequence (P00742 41-488 limits assumed): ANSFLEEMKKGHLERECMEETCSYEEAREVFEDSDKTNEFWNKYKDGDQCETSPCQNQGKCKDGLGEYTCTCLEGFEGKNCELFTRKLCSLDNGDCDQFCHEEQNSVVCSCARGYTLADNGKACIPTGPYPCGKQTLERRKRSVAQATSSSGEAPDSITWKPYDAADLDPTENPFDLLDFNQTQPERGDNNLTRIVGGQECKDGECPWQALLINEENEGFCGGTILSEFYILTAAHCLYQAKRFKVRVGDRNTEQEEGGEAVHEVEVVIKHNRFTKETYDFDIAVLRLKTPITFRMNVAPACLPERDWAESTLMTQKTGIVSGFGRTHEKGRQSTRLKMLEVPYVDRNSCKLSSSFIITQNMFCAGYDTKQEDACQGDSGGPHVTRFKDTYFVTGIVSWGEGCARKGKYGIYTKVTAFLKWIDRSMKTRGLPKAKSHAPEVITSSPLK
T6 sequence (O15393 whole entry): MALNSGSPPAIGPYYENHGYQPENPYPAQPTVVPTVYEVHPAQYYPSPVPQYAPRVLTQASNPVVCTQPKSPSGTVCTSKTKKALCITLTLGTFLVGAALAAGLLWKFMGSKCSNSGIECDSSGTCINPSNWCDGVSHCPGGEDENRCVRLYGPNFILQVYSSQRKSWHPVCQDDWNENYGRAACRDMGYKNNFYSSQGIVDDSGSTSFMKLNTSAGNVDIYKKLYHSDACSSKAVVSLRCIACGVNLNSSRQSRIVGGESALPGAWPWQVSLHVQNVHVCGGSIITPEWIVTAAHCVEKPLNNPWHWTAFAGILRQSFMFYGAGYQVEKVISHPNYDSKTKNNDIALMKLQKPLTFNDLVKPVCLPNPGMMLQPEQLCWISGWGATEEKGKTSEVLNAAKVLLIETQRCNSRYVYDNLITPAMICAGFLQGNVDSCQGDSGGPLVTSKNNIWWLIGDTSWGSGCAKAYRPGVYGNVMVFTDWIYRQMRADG
T5 sequence (P05981 45-417 limits assumed): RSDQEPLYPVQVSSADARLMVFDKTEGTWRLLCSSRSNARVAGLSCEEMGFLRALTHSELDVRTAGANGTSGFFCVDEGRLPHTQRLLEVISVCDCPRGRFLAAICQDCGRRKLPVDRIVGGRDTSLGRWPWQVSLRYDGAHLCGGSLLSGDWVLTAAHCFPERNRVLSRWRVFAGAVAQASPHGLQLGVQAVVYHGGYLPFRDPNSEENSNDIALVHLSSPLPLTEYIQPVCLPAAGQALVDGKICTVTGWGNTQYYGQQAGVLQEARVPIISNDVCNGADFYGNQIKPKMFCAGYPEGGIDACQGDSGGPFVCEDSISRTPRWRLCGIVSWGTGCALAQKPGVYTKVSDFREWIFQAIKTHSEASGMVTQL

For {phenyl(piperidin-4-yl)methyl carbamate}-Leu-Arg-kbt [phenyl(piperidin-4-yl)methyl Leu-Arg-kbt carbamate (11a)], the “HGFA IC50” value [1] was 14000 nM, the “Matriptase IC50” value [2] was 1100 nM and the “Thrombin IC50” value [3] was over 20000 nM. The “Factor Xa IC50” value [4] was over 20000 nM and the “Hepsin IC50” value [5] was 8 nM.

For X2-Leu-Arg-kbt [1-(ethylsulfonyl)piperidin-4-yl Leu-Arg-kbt carbamate (8h)], the “HGFA IC50” value [1] was over 20000 nM, the “Matriptase IC50” value [2] was 730 nM and the “Thrombin IC50” value [3] was over 20000 nM. The “Factor Xa IC50” value [4] was over 20000 nM and the “Hepsin IC50” value [5] was 10 nM.

Ac-SKLR-{kbt-Val-NH2} [Ac-SKLR kbt V-amide, ZFH7116] was tested, and the “HGFA IC50” value [6] was 26 nM, the “Calu-3 EC50” value (human TMPRSS2 [7]) was 307 nM and the “Matriptase IC50” value [8] was 11 nM. The “Hepsin IC50” value [9] was 0.5 nM, the “IC50, cell-based TMPRSS2 fluorogenic enzyme inhibition assay” value (human TMPRSS2 [10]) was 51 nM and the “KLK5 IC50” value [11] was 137 nM.

B1: Cyclo(DLK)R-kbt, VD2173 (peptide)
peptide: Ac-DLKR-kbt
modifications: lactam 1-3; not fully specified; printed as Cyclo(DLK)R-kbt; also: N-terminal acetyl described as 6-acetamido
With B1 the “HGFA IC50” value [6] was 5260 nM, the “Calu-3 EC50” value (human TMPRSS2 [7]) was 104 nM and the “Matriptase IC50” value [8] was 1.4 nM. For the same binder, the “Hepsin IC50” value [9] was 10 nM, the “IC50, cell-based TMPRSS2 fluorogenic enzyme inhibition assay” value (human TMPRSS2 [10]) was 6.9 nM and the “HGFA (IC50 nM)” value [12] was 3590 nM. For the same binder, the “Matriptase (IC50 nM)” value [13] was 0.28 nM, the “Thrombin* (IC50 nM)” value [14] was 700 nM and the “Factor Xa* (IC50 nM)” value [15] was 564 nM. The “Hepsin (IC50 nM)” value [16] was 8.4 nM and the “KLK5 IC50” value [11] was 193 nM.
